The assay has as its target T1, Mmm1-SOG (miniSOG fused to the cytosolic face of Mmm1) (S. cerevisiae), P41800.
T1 chain: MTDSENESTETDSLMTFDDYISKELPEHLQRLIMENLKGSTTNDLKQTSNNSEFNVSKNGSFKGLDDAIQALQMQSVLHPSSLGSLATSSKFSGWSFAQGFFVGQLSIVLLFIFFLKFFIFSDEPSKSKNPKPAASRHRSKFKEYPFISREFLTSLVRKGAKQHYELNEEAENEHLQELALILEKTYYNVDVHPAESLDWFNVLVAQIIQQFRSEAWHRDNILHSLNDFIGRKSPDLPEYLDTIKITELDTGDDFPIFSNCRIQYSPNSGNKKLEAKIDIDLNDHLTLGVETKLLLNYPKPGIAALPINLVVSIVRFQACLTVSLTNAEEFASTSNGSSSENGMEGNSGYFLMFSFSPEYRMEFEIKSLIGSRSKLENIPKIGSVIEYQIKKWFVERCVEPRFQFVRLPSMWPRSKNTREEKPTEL
Put plainly: singlet oxygen triplet energy transfer. As to conditions: remark: other sources report otherwise.

B1: Mdm34-SOS (IFP1.4 fused to the cytosolic face of Mdm34), P53083 1-459 (natural protein)
chain: MSFRFNEAVFGDNSFNERIREKLSTALNSPSKKKLDILKSGIKVQKVDFPTIPQLEILDLDIITQPKSLAKGICKISCKDAMLRIQTVIESNLLLINEQDTPSFTMPQLINNGSFTIPITMTFSSIELEAITNIFVKNPGIGISFNDVDLDFKFDCSVKILQSTIERRLKESMHVVFKDVLPSLIFNTSQNWFTNRGESTSTIPGKREHHHQQTTMSRNVILDGSDFQELSPINMLRLSSIVSSRSTLSLHSTVMNSLSAIPGCLERQNLYRFISRMPSLNNYYSSQSFPQPKSSTVSSKQLVKPFYCSHNLLPKTVLDSSQYDLATITKIQSRLFDRSNSNDDNAKPRRRKIKCKKTRTPSNLQSQGEQAVDDSTAIETVTSTPVQTPIPELEEQSPPYLKTTVSIRDKYVIPEKISLNLDSKKDTSKKKPFYFIGLNSQEPSNNWKWGMEDSPPPYH
B1 registered an STET signal of 0.082 s⁻¹.

B2: SOS-Mdm34 (IFP1.4 fused to the N-terminus of Mdm34, facing the intermembrane space), P53083 1-459 (natural protein)
chain: B1 chain
The molecule B2 yielded an STET signal of 0.052 s⁻¹.
